# Legend:
# [1] = target: H4-IgM-P (pentameric H4 IgM) (human) (UniProt P01591); assay: ELISA
# [2] = target: P5C3-IgM-P (pentameric P5C3 IgM) (human) (UniProt P01591); assay: ELISA; […] (from 500 ng/mL with P5C3, […]
substance,measurement,setting,value
"SARS-CoV-2 spike protein RBD (Wuhan strain), recombinant (from UniProt P0DTC2 319-541) (domain or fragment)",EC50,[1],169 pM
same,EC50,[2],16 pM
